Here are results for nine molecules from patent US9944954B2, “Glycerol 3-phosphate dehydrogenase for butanol production” (BUTAMAX ADVANCED BIOFUELS LLC, priority 2013, dated 2018).

As a reminder, the Km is the concentration of substrate that gives half-maximal velocity. In general, Vmax refers to the rate approached at saturating substrate.

Series [1] relates to Saccharomyces phosphatase GPP1. The note with it: Norbeck, JBC 271:13875-81 (1996); cited from earlier work.
Series [2] relates to E. coli gpsA (glycerol-3-phosphate dehydrogenase). The note with it: cited from earlier work; for affinity for the cofactors NADH and NADPH: Edgar and Bell, JBC 255:3492-7 (1980).
Series [3] relates to Saccharomyces phosphatase GPP2. To be noted: Norbeck, JBC 271:13875-81 (1996); cited from earlier work.
For series [4], the system named is NC(=O)C1=CN([C@@H]2O[C@H](COP(=O)(O)OP(=O)(O)OC[C@H]3O[C@@H](n4cnc5c(N)ncnc54)[C@H](O)[C@@H]3O)[C@@H](O)[C@H]2O)C=CC1. As to the kind of experiment: cells, lysate or membranes named. To be noted: pH 6.8; 30.0 °C.
Series [5] deals with NC(=O)C1=CN([C@@H]2O[C@H](COP(=O)(O)OP(=O)(O)OC[C@H]3O[C@@H](n4cnc5c(N)ncnc54)[C@H](OP(=O)(O)O)[C@@H]3O)[C@@H](O)[C@H]2O)C=CC1. Kind of series: cells, lysate or membranes named. To be noted: pH 6.8; 30.0 °C.
For series [6], the system named is Dunaliella viridis GPDH1. To be noted: read-out: NADH KM; He et al, 2009; cited from earlier work.
The test system of series [7] is Saccharomyces cerevisiae GPD1. The note with it: read-out: NADH KM; Albertyn et al. 1992; cited from earlier work.
Series [8] concerns Drosophila melanogaster GPDH1 (flight muscle). To be noted: read-out: NADH KM; Niesel et al, 1982; cited from earlier work.
The subject of series [9] is Jaculus orientalis GPD. To be noted: read-out: NADH KM; Berrada et al, 2002; cited from earlier work.
Series [10] has as its system Dunaliella viridis GPDH2. To be noted: read-out: NADH KM; He et al, 2009; cited from earlier work.
In series [11] the test system is Leishmania mexicana GPD. To be noted: read-out: NADH KM; Marche et al, 2000; cited from earlier work.
Substrate in series [12]: NC(=O)C1=CN([C@@H]2O[C@H](COP(=O)(O)OP(=O)(O)OC[C@H]3O[C@@H](n4cnc5c(N)ncnc54)[C@H](O)[C@@H]3O)[C@@H](O)[C@H]2O)C=CC1
Kind of series: purified protein, by the assay type. The note with it: pH 6.8, 30.0 °C.

Substrate in series [13]: NC(=O)C1=CN([C@@H]2O[C@H](COP(=O)(O)OP(=O)(O)OC[C@H]3O[C@@H](n4cnc5c(N)ncnc54)[C@H](OP(=O)(O)O)[C@@H]3O)[C@@H](O)[C@H]2O)C=CC1
Kind of series: purified protein, by the assay type. To be noted: pH 6.8; 30.0 °C.

Substrate in series [14]: NC(=O)C1=CN([C@@H]2O[C@H](COP(=O)(O)OP(=O)(O)OC[C@H]3O[C@@H](n4cnc5c(N)ncnc54)[C@H](OP(=O)(O)O)[C@@H]3O)[C@@H](O)[C@H]2O)C=CC1
Kind of series: cells, lysate or membranes named. To be noted: pH 6.8; 30.0 °C. This is another data set of the same source.

Substrate in series [15]: NC(=O)C1=CN([C@@H]2O[C@H](COP(=O)(O)OP(=O)(O)OC[C@H]3O[C@@H](n4cnc5c(N)ncnc54)[C@H](O)[C@@H]3O)[C@@H](O)[C@H]2O)C=CC1
Kind of series: cells, lysate or membranes named. To be noted: pH 6.8; 30.0 °C. This is another data set of the same source.

Substrate in series [16]: NC(=O)C1=CN([C@@H]2O[C@H](COP(=O)(O)OP(=O)(O)OC[C@H]3O[C@@H](n4cnc5c(N)ncnc54)[C@H](O)[C@@H]3O)[C@@H](O)[C@H]2O)C=CC1
Kind of series: cells, lysate or membranes named. The series is classed as biochemical, Saccharomyces cerevisiae. The note with it: E. coli expressed, 30.0 °C. The procedure:
Glycerol-3-phosphate production was measured by LC/MS.
The data used in this section are provided in Table 11, and includes measurements of the metabolic products and the in vitro measurements of GPD as described above.

The mark [17] stands for this setting: other: GPD1 WT_y, crude cell extract, pH 6.8, 1 mM dihydroxyacetone phosphate.

`O=P(O)(O)OC[C@H](O)CO` [glycerol-3-phosphate]: the Michaelis constant is recorded as 3.1 in series [1] and 3.9 in series [3]. Besides, in series [2], the “product inhibition by glycerol-3-phosphate” value is “product inhibited”.
For “Rickettsia prowazekii str. BuV67-CWPP GPD (gene SEQ ID NO: 16; SEQ ID NO: 192) (Rickettsia prowazekii str. Madrid E)”, the Km was determined as 664 µM in series [4] and 4 µM in series [5].
On to `NC(=O)C1=CN([C@@H]2O[C@H](COP(=O)(O)OP(=O)(O)OC[C@H]3O[C@@H](n4cnc5c(N)ncnc54)[C@H](O)[C@@H]3O)[C@@H](O)[C@H]2O)C=CC1` [NADH, reduced nicotinamide adenine dinucleotide], for which the “affinity for the cofactors NADH and NADPH” value in [2] is “substantially the same affinity”. The Km is 58.9 µM in series [6]; 23 µM in series [7]; 78 µM in series [8]; 32 µM in [9]; 59.2 µM in series [10]; 24 µM in [11].
For `NC(=O)C1=CN([C@@H]2O[C@H](COP(=O)(O)OP(=O)(O)OC[C@H]3O[C@@H](n4cnc5c(N)ncnc54)[C@H](OP(=O)(O)O)[C@@H]3O)[C@@H](O)[C@H]2O)C=CC1` [NADPH, reduced nicotinamide adenine dinucleotide phosphate], the “affinity for the cofactors NADH and NADPH” value in [2] is on record as “substantially the same affinity”.

B1: Drosophila melanogaster glycerol 3 phosphate dehydrogenase, isoform C (gi: 22945708) (Drosophila melanogaster) (protein)
chain: MADKVNVCIVGSGNWGSAIAKIVGANAAALPEFEERVTMFVYEELIDGKKLTEIINETHENVKYLKGHKLPPNVVAVPDLVEAAKNADILIFVVPHQFIPNFCKQLLGKIKPNAIAISLIKGFDKAEGGGIDLISHIITRHLKIPCAVLMGANLANEVAEGNFCETTIGCTDKKYGKVLRDLFQANHFRVVVVDDADAVEVCGALKNIVACGAGFVDGLKLGDNTKAAVIRLGLMEMIRFVDVFYPGSKLSTFFESCGVADLITTCYGGRNRRVSEAFVTSGKTIEELEKEMLNGQKLQGPPTAEEVNYMLKNKGLEDKFPLFTAIHKICTNQLKPNDLIDCIRNHPEHMDTSIMPSPKL
For the molecule B1, the Km in series [12] (other: one experiment, in parallel with Saccharomyces GPD1, E. coli expressed) stood at 5 µM.

B2: Beggiatoa alba GPD (SEQ ID NO: 17; SEQ ID NO: 193) (Beggiatoa alba B18LD) (protein)
chain: MLSPSALLVLGAGSWGTALALALARRQYPIYLWGKDPAHVHTLQIQRCNQRFLPNAVFPDNLYAITDFVTLMPIVEDIIIVVPSHGFRETLKKIKPYITKNHRLCWATKGLEYQTGLLLHEVARAELGDNIPLAVLSGPSFAGEVAAALPTAVTIAAQDIENAHHVAQLFHQASFRAYTSNDMVGVQIGGAVKNVIAIAAGIADGLKMGANTRAALITRGLSEIVRLGIALGGQRETFMGLAGLGDLVLTCTDNQSRNRRFGYALAQGISLEAAQAQVGQVVEGIHAATITHQLAQQHGVEMPIVNHVNQVLTGQSTPLEAAQALLAREPKPEML
Consider B2, for which the Km in series [13] came to 6 µM; in [12] it was 101 µM.

B3: Archaeoglobus fulgidus DSM 4304 GPD (gene SEQ ID NO: 14) (Archaeoglobus fulgidus DSM 4304) (protein)
chain: MIVSILGAGAMGSALSVPLVDNGNEVRIWGTEFDTEILKSISAGREHPRLGVKLNGVEIFWPEQLEKCLENAEVVLLGVSTDGVLPVMSRILPYLKDQYIVLISKGLIDFDNSVLTVPEAVWRLKHDLRERTVAITGPAIAREVAKRMPTTVVFSSPSESSANKMKEIFETEYFGVEVTTDIIGTEITSALKNVYSIAIAWIRGYESRKNVEMSNAKGVIATRAINEMAELIEILGGDRETAFGLSGFGDLIATFRGGRNGMLGELLGKGLSIDEAMEELERRGVGVVEGYKTAEKAYRLSSKINADTKLLDSIYRVLYEGLKVEEVLFELATFK
As to B3, the Km was 7 µM in series [14] and 5 µM in [15].

B4: Saccharomyces cerevisiae GPD1 (glycerol-3-phosphate dehydrogenase), wild type, SEQ ID NO: 195 (Saccharomyces cerevisiae S288C) (protein)
chain: MSAAADRLNLTSGHLNAGRKRSSSSVSLKAAEKPFKVTVIGSGNWGTTIAKVVAENCKGYPEVFAPIVQMWVFEEEINGEKLTEIINTRHQNVKYLPGITLPDNLVANPDLIDSVKDVDIIVFNIPHQFLPRICSQLKGHVDSHVRAISCLKGFEVGAKGVQLLSSYITEELGIQCGALSGANIATEVAQEHWSETTVAYHIPKDFRGEGKDVDHKVLKALFHRPYFHVSVIEDVAGISICGALKNVVALGCGFVEGLGWGNNASAAIQRVGLGEIIRFGQMFFPESREETYYQESAGVADLITTCAGGRNVKVARLMATSGKDAWECEKELLNGQSAQGLITCKEVHEWLETCGSVEDFPLFEAVYQIVYNNYPMKNLPDMIEELDLHED
notes: also native or codon-optimized GPD1 in yeast PNY2145-derived strains (T12); full length 391 aa
For the molecule B4, the Km was found to be 13 µM in series [16] (setting [17]) and 5 µM in [16] (other: one experiment, in parallel with Drosophila isoform C, pH 6.8). Also, the Vmax in series [16] (setting [17]) was 9000 µM/min.

B5: Kangiella koreensis GPD (SEQ ID NO: 18; SEQ ID NO: 194) (Kangiella koreensis DSM 16069) (protein)
chain: MSAQLSFAVLGAGSYGTALAVLLARNGHSVQLWARNSQHVVEMQQAKQNTKYLPDVAFPDNLSVTDQIDVALKHHPIILVAVPSHAFRDTLYLIKPLVNQDSKLVWASKGLDPDSGDLLGNVLKNILGDNMPHAILSGPTFAKEMAIGMPTAITLAANNDDFAEQLALALHNERFRVYTSDDIVGVQVGGAVKNVVAIGAGIADGLGYGANARTALITRGLAEMTRLGVAAGGKQETFNGMAGMGDLVLTCTDNQSRNRRFGLALGKGANRDEAEHAIGQVVEGVRNAKEVKMLAERLGVEMPISDAIYRIIYEGVDARQAAHELLTRDLKSEG
With B5, the results for the Km in series [13] and in [12] were 1 µM and 2018 µM, respectively.
